T1: Construct 7 (human NaPi2b del 317-326) (human, UniProt O95436 1-690)
T1 construct: also called CL_#29921
T1 sequence: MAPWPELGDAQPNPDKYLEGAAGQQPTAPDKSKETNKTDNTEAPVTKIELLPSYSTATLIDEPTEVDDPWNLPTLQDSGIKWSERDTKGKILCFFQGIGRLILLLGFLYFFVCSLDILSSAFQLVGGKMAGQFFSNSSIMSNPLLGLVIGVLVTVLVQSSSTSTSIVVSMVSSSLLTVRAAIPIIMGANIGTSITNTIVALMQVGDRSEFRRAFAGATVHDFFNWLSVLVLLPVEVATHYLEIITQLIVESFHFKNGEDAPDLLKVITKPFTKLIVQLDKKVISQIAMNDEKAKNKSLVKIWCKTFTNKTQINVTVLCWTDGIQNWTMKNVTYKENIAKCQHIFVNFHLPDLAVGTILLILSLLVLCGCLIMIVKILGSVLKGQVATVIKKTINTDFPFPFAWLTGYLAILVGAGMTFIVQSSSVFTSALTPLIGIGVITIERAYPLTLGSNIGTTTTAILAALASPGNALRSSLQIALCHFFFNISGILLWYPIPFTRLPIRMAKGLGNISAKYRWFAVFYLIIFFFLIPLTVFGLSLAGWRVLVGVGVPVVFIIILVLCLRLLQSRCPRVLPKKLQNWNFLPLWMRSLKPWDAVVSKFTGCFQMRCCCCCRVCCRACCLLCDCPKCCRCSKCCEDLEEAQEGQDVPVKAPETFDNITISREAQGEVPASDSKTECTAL

T2: Construct 6 (human NaPi2b del 317-333) (human, UniProt O95436 1-690)
T2 construct: also called CL_#29919
T2 sequence: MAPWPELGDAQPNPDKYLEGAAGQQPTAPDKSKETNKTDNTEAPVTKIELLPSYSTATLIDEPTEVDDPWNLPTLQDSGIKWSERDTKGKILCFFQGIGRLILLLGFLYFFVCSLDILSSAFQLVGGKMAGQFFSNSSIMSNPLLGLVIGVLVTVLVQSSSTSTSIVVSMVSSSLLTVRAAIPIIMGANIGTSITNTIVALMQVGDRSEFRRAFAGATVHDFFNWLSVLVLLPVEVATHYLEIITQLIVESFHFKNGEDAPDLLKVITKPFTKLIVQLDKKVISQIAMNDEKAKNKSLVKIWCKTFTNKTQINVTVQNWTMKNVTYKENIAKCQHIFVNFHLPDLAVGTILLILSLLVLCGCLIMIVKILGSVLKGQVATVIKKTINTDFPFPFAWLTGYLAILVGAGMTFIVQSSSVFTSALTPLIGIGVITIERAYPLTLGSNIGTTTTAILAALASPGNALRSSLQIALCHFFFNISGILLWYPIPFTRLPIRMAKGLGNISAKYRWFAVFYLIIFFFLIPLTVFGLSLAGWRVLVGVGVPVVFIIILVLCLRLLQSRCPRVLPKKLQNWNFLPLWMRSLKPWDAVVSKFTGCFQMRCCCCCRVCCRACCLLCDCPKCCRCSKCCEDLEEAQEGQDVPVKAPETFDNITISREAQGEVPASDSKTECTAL


Assays:
Assay in all cases: flow cytometry, transfected HEK293-6e cells, antibody 200 nM;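 further: cells incubated with antibody for 24 h at 4 °C, background taken as average MFI of unstained cells without primary antibody, at least 1,000 events per well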
[1] = target: T3, Construct 4 (chimeric human NaPi2b, swap in NaPi2c in 341-358) (human)
T3 construct: also called CL_#13435

[2] = target: T1, Construct 7 (human NaPi2b del 317-326)
[3] = target: T2, Construct 6 (human NaPi2b del 317-333)
[4] = target: T4, Construct 3 (chimeric human NaPi2b, swap in NaPi2c in 304-321) (human)
T4 construct: also called CL_#29916

Binder	Background-Subtracted AF647 Mean Fluorescence Intensity [1] [MFI]	Background-Subtracted AF647 Mean Fluorescence Intensity [2] [MFI]	Background-Subtracted AF647 Mean Fluorescence Intensity [3] [MFI]	Background-Subtracted AF647 Mean Fluorescence Intensity [4] [MFI]
lifastuzumab (v18993), reference anti-NaPi2b antibody (antibody, human IgG1, kappa) heavy 1: GEVQLVESGGGLVQPGGSLRLSCAASGFSFSDFAMSWVRQAPGKGLEWVATIGRVAFHTYYPDSMKGRFTISRDNSKNTLYLQMNSLRAEDTAVYYCARHRGFDVGHFDFWGQGTLVTVSSASTKGPSVFPLAPSSKSTSGGTAALGCLVKDYFPEPVTVSWNSGALTSGVHTFPAVLQSSGLYSLSSVVTVPSSSLGTQTYICNVNHKPSNTKVDKKVEPKSCDKTHTCPPCPAPELLGGPSVFLFPPKPKDTLMISRTPEVTCVVVDVSHEDPEVKFNWYVDGVEVHNAKTKPREEQYNSTYRVVSVLTVLHQDWLNGKEYKCKVSNKALPAPIEKTISKAKGQPREPQVYVYPPSRDELTKNQVSLTCLVKGFYPSDIAVEWESNGQPENNYKTTPPVLDSDGSFALVSKLTVDKSRWQQGNVFSCSVMHEALHNHYTQKSLSLSPG heavy 2: not shown light: GDIQMTQSPSSLSASVGDRVTITCRSSETLVHSSGNTYLEWYQQKPGKAPKLLIYRVSNRFSGVPSRFSGSGSGTDFTLTISSLQPEDFATYYCFQGSFNPLTFGQGTKVEIKRTVAAPSVFIFPPSDEQLKSGTASVVCLLNNFYPREAKVQWKVDNALQSGNSQESVTEQDSKDSTYSLSSTLTLSKADYEKHKVYACEVTHQGLSSPVTKSFNRGEC	744	21	183	943
palivizumab (v21995), anti-RSV antibody, negative control (antibody, human IgG1, kappa, V domains shown) VH: QVTLRESGPALVKPTQTLTLTCTFSGFSLSTSGMSVGWIRQPPGKALEWLADIWWDDKKDYNPSLKSRLTISKDTSKNQVVLKVTNMDPADTATYYCARSMITNWYFDVWGAGTTVTVSS VL: DIQMTQSPSTLSASVGDRVTITCKSQLSVGYMHWYQQKPGKAPKLLIYDTSKLASGVPSRFSGSGSGTEFTLTISSLQPDDFATYYCFQGSGYPFTFGGGTKLEIKR	12	-97	2	-5

Source: patent US20260232827A1 (Zymeworks, published 2026)
